The DeepSol protein solubility set

Test: soluble on expression in E. coli; label from the status in PepcDB or PDB records

Row | Sequence | soluble on expression in E. coli
1 | MSDDPIAASQAVVLSQAQAQNSQYALARTFATQKVSLEESVLSQVTTAIQTAQEKIVYAGNGTLSDDDRASLATDLQGIRDQLMNLANSTDGNGRYIFAGYKTEAAPFDQATGGYHGGEKSVTQQVDSARTMVIGHTGAQIFNSITSNAVPEPDGSDSEKNLFVMLDTAIAALKTPVEGNNVEKEKAAAAIDKTNRGLKNSLNNVLTVRAELGTQLSELSTLDSLGSDRALGQKLQMSNLVDVDWNSV | soluble
2 | MSDEQIDKLVSRLDGALNRLGNVKKDHPLESSSNSKPTHQPKSPAPYRQKIEKLSAEVVDSNPYSRLMALQRMGIVNEYERIREKTVAVVGVGGVGSVVAEMLTRCGIGKLILFDYDKVEIANMNRLFYQPNQAGLSKVEAARDTLIHVNPDVQIEVHNFNITTMDNFDTFVNRIRKGSLTDGKIDLVLSCVDNFEARMAVNMACNEENQIWMESGVSENAVSGHIQYIEPGKTACFACVPPLVVASGIDERTLKRDGVCAASLPTTMAVVAGFLVMNTLKYLLNFGEVSQYVGYNALSDFFPRDSIKPNPYCDDSHCLQRQKEYEEKVANQPVDLEVEVPEEETVVHEDNEWGIELVNESEPSAEQSSSLNAGTGLKFAYEPIKRDAQTELSPAQAATHDFMKSIKDKLVEEAQNKGK | not soluble
3 | MSDKDEGTERLVALLERLGVNRWAARSEADDAVVNARNLVPMFLLLREVWKHVVREGDTSWLQKDARLLAQEPEAGWSDMRRALASLQAKGATAQELTDVVKGKQVSLLYDVFETLCDDDPDLEAEFSGIGWGVFETDAVGRPGRRMDRLFAPVVTLDPTGRCMGPRE | not soluble
4 | MSDKLFSIVTISFNQAQFLREAVESVLAQKGGDIEYIVVDPGSTDGSREILAEYRSAIDHLILEADHGPGDGLNKGFARANGRYGYFLNSDDFLLPGAIDIMRTLWQRHKNTDVLLCGAWMVDENRRPQRELRPSPVTLEKLLDGEAKIVQQGMSFRMDLFRKVGGFNVGNRTCWDYELLCDFLAAGAAVTQSEARLAAFRIHSASISGGIGGELATKRYLADLDSVYERLTGQKKKPEQRRRAVRLSKRLGSPSHVLLRMRELLAPWTLELRWQADHERKSRRLEHHHHHH | not soluble
5 | MSDKLPYKVADIGLAAWGRKALDIAENEMPGLMRMRERYSASKPLKGARIAGCLHMTVETAVLIETLVTLGAEVQWSSCNIFSTQNHAAAAIAKAGIPVYAWKGETDEEYLWCIEQTLYFKDGPLNMILDDGGDLTNLIHTKYPQLLPGIRGISEETTTGVHNLYKMMANGILKVPAINVNDSVTKSKFDNLYGCRESLIDGIKRATDVMIAGKVAVVAGYGDVGKGCAQALRGFGARVIITEIDPINALQAAMEGYEVTTMDEACQEGNIFVTTTGCIDIILGRHFEQMKDDAIVCNIGHFDVEIDVKWLNENAVEKVNIKPQVDRYRLKNGRRIILLAEGRLVNLGCAMGHPSFVMSNSFTNQVMAQIELWTHPDKYPVGVHFLPKKLDEAVAEAHLGKLNVKLTKLTEKQAQYLGMSCDGPFKPDHYRY | soluble
6 | MSDNDIIDDDVLNIEDMTGDDADLSAIEGDLNEIEEEQKKLKAIQNEMVGHMNLNTSSQSNSSQSLLTPEEKAEADAKSVYVGNVDYGATAEEIEQHFHGCGSVSRVTIQCDRFSGHPKGFAYVEFTEKEGMQNALAMTDSLLRGRQIKVDPKRTNKPGMSTTNRPPFRGRGGRGRGNVIVKYVYAGGFRPRGRGARRRPGFAPY | soluble
7 | MSDRKPVRGRHQARKRAVALLFEAEVRGISAAEVVDTRAALAEAKPDIARLHPYTAAVARGVSEHAAHIDDLITAHLRGWTLDRLPAVDRAILRVSVWELLHAADVPEPVVVDEAVQLAKELSTDDSPGFVNGVLGQVMLVTPQLRAAAQAVRGGA | soluble
8 | MSDRYRFTILGCGSSPGVPRPNGDWGACNPNNPKNKRYRSSLLVERIHKSGKKTTIVIDTGPDFRSQMIDACVNHLDAALYTHSHADHIHGIDDLRSYALAQKSLIDIYADSFTLRHLKNAFGYCFQTPKGSSYLPILKAHLINEDSQFIIQGQGGAIHVNTHLQLHGSIHSLGFRIGNVAYCTDVSQFPKKTLPKLMNLNVLIIEALQFKSHPSHLSVDQALQWIKYLQPKQAILTHMDRSLDYNEVINYLPPHVKPAYQGLIFEADA | not soluble
9 | MSDSDAMTDPNAVSYSNAIVVLCTAPDEASAQNLAAQVLGEKLAACVTLLPGATSLYYWEGKLEQEYEVQLLFKSNTDHQQALLTYIKQHHPYQTPELLVLPVRDGDKDYLSWLNASLL | not soluble
10 | MSEANIIHSRYGLRCEKLDKPLNLGWGLDNSAVLHCPGELPTGWLCDALDQIFIAAPQLSAVALPWAEWREEPQALTLFGQVKSDIIHRTAFWQLPLWLSSPANRASGEMVFDAEREIYFPQRPPRPQGEVYRRYDPRIRRMLSFRIADPVSDAERFTRWMNDPRVEYFWEQSGSLEVQTAYLERQLTGKHAFPLIGCFDDRPFSYFEIYWAAEDRIGRHYSWQPFDRGLHLLVGEQQWRGAHYVQSWLRGLTHYLLLDEPRTQRTVLEPRTDNQRLFRHLEPAGYRTIKEFDFPHKRSRMVMADRHHFFTEVGL | not soluble
11 | MSEATTTLDGWYCLHDLRSIDWAAWKTLSSDERGQAVSEFLNVVEKWNEVATAKKGSHAMYTVVGQKADIMLMILRPTMEELNEIETELNKTTLAEYMVPAYSYVSVVELSNYLPADEDPYQNPQILARLYPELPKANHICFYPMDKRRQGDDNWYMLPMEERKKMMYSHSKIGRQYAGKVRQVISGSVGFDDFEWGVTLFADDVLQFKKLIYEMRFDEVSARYGEFGTFFVGNILPDEKVEKFLHI | not soluble
12 | MSEDGEISLSPNSAALMDGLDDFIIDKNCSGIIPNEDLERETPSADDDAEVKTSSNWAKNMRKRMFGEQCDEPEESEKKRRRTNCCFNCRGGDHSIAQCPEPKNFAEIRKNKLEFMNDKQQQHQPTGRISQVTEQQQEAKFKPGRLSQNLRKALSLGPDDIPEWVYRMRRLGFYRGYPPGYLRKSLKREFATLKIYSEDHNQEEVDNDDDEEARPAPTIQSEKVHFYMGFNKTYGALRDRERGRFEVPPFDIFCEMLQTEVARDHEGTEKIRIREERHQRSELRKIREQQKEEEEQQQRDSAEKVEKEVTVDQTISEVAAAAAAVEEKPGTPEPVGRMGESISEFIGTPIFSRRDVTGTWIEDTVPSLEAFSVGIVPFEAKEEEKPRGIFKKIMSTLKGITGRNSGDDEMKKKE | not soluble
13 | MSEEDKAKKLENLLKLLQLNNDDTSKFTQEQKKAMKDHKFWRTQPVKDFDEKVVEEGPIDKPKTPEDISDKPLPLLSSFEWCSIDVDNKKQLEDVFVLLNENYVEDRDAGFRFNYTKEFFNWALKSPGWKKDWHIGVRVKETQKLVAFISAIPVTLGVRGKQVPSVEINFLCVHKQLRSKRLTPVLIKEITRRVNKCDIWHALYTAGIVLPAPVSTCRYTHRPLNWKKLYEVDFTGLPDGHTEEDMIAENALPAKTKTAGLRKLKKEDIDQVFELFKRYQSRFELIQIFTKEEFEHNFIGEESLPLDKQVIFSYVVEQPDGKITDFFSFYSLPFTILNNTKYKDLGIGYLYYYATDADFQFKDRFDPKATKALKTRLCELIYDACILAKNANMDVFNALTSQDNTLFLDDLKFGPGDGFLNFYLFNYRAKPITGGLNPDNSNDIKRRSNVGVVML | soluble
14 | MSEEHIAVTRFREYLRVNTEQPNPNYAACRDFLFKYADELGIARRSIETAPGVFLVIMTIPGSQPELPSIMLYSHTDVVPTFREHWTHDPYSAFKDEDGNIFARGAQDMKCVGVQQMEALRNLFAQGIRQWKRTIHLVWGPDEEIFGINGMKGFAKTDEFKKLNLGFSLDEGMPSDDDVYKVFYAERVAWWVKVTFPGNPGHGSQFMENTAMEKLERFLASARKFRNEQKVVLESNPNLTLGDVTTLNVNIVNGGVQFNVIPEKFEAYVDMRLTPHEDFNKIREMLDQWAKNAGEGVTYEFSQYSDQKPISAHTRDNSFWAAFEDSLNQENCKFEKGIMVASTDSRFVRYEGVNSINFSPMINTPFLPHDHNEYLNEKVFLRGLEIYQTIINNLGNV | not soluble
15 | MSEEIVLKAGGKIYQGWTKIGITRSLEAMSGAFDLEMTYKFLGNDAQYKAFIEPIKQGQACTVDIGGERVITGYVDDWVPSYDESTITISVSGRDKTADLVDCSIDYPSGQFNNQTLTQIADIVCKPFGIKVIVNTDVGEPFQRIQIEQGETPHELLARLAKQRGVLLTSDTFGNLVITRASKTKAGVSLILGDNVKAARGRFSWRQRFSKFTIKAAGAAHGQWDSAGLPTVGGIKADVTDSEIGRYRPLIIVNEEVTTAEGAAKRGQWERQRSIGKSNMAEYTVTGWRIPQTGKLWNINTLVPVIDEIMGLDEEMLIASILFSEDDAGRLAVISVVRPDAMDIPAQIVKDTKLGGSTW | soluble
16 | MSEGLSFVIQRHQARRLHYDFRLEIDGVLVSWAVPKGPSRDPSVKRLAVHVEDHPLEYGGFSGDIPKGQYGAGHVDIWDSGVWIPRGDPRQGLRRGKLHFALRGRRLAGDWVLVRMSGEQDQWLLRKEDDEALEHHHHHH | not soluble
17 | MSEHETAGEGRFNSIEIRVLGSLIEKQATSPESYPLTLNALVLACNQKTSREPVMNLTQGQVGQALRALEGQGMTRLQMGSRADRWEHRVDKALELVPAQLVLMGLMFLRGPQTLNELLTRSNRLHDFDDTEQIQHQLERLISRDLALHLPRQAGQREDRYTHALGDPAEIEAILAARQQEGGARTSGGSVSEDRIEALEARIAALEARLAELEG | not soluble
18 | MSEIPTEVPVKTRKRTYDLKFKLHAINYALEHKNISKAAKDLNVNRQNIQQWIAQKAEIEKQLEDNGSTATKRLSGGGRPLKYDDVDKELIKWVHDQRKEKQRVTRRIIGETAKKISQNSDFKASRGWLDKFMCRHNLSTRRARTEPGDLMQTLVDILLRQTSSDDGEEDPMISFIKSCIPSGEDPLEGEDQAASSSVQVPKVLAEENGHESDSDQSIVDVND | not soluble
19 | MSEITIGVLSLQGDFEPHINHFIKLQIPSLNIIQVRNVHDLGLCDGLVIPGGESTTVRRCCAYENDTLYNALVHFIHVLKKPIWGTCAGCILLSKNVENIKLYSNFGNKFSFGGLDITICRNFYGSQNDSFICSLNIISDSSAFKKDLTAACIRAPYIREILSDEVKVLATFSHESYGPNIIAAVEQNNCLGTVFHPELLPHTAFQQYFYEKVKNYKYSLEHHHHHH | soluble
20 | MSEKYIVTWDMLQIHARKLASRLMPSEQWKGIIAVSRGGLVPGALLARELGIRHVDTVAISSYDHDNQRELKVLKRAEGDGEGFIVIDDLVDTGGTAVAIREMYPKAHFVTIFAKPAGRPLVDDYVVDIPQDTWIEQPWDMGVVFVPPISGR | soluble
21 | MSELFKKLMDQIEMPLEIKNSSVFSSADIIEVKVHSLSRLWEFHFSFPELLPIEVYRELQTRLVNSFEKADIKATFDIRAETIDFSDDLLQDYYQQAFCEPLCNSASFKSSFSQLKVHYNGSQMIISAPQFVNNNHFRQNHLPRLEQQFSLFGF | not soluble
22 | MSELVVIREMQEKDILALDTQFVQQGWPSRQEILMNYLEEQLVKQRTVFVAEKKATLLGYVTLLPLAKEGPFKNLYPEIADFNVFLPFQKQGVGRLLLNRAENVAKSYADTVSLGVGLHPGYGAAQRLYIKQGYVPDGSGVWFQNKQLKPNERCVNDDELVLYLSKKL | not soluble
23 | MSEMGKYKPPAERKYGKGVQSCQRCGSKDSVIQKYGIYLCRQCFREVAYELGFRKYW | soluble
24 | MSEMSAIYRVKQYILNLIKDGELTNGSKLPSNLSIARALNVKTDDVYDGIDELITEQVVTDNFEEGTSVKVKPPFYYPLNKIISIGTMIKEAGYEAGTEYLNLDEQPATILDAEHLGIETKEPITIIERLRTANHKPVVYCLDKIAKTYLTCTDYQQSSGSMLEAIKASTNHQIMHAEMDLEAISYEPHISEVLNASPHEGLMLLKVVHYDEKHQPILYSLNYIKSSLVKFTITKSE | not soluble
